This note sets out measurements from US20210393713A1 (published 2021).

This experiment concerns the target AAV-PHP.B capsid (AAV9 variant with the […] insert). Kind of experiment: SPR. Background: In SPR one partner is held on a chip, and binding of the other changes the refractive index at the surface.

The term Kd denotes a measure of binding affinity in units of concentration. A lower Kd goes with tighter binding.

B1: LY6A as used in SPR (immobilized on the sensor chip, or monomeric in solution) (receptor)
chain: LECYQCYGVPFETSCPSITCPYPDGVCVTQEAAVIVDSQTRKVKNNLCLPICPPNIESMEILGTKVNVKTSCCQEDLCNVAVPNG
As for B1, binding was characterised by a dissociation constant (Kd) of 0.119 nM.
